Data reported in paper PMC3000319 (PLoS ONE, 2010).

Target: the molecule itself
Assay: AUC

B1: recombinant ovine PrP (25–233) (natural protein)
chain: not shown
- stoichiometry N: 2
